Target: T1, Mas70p (S. cerevisiae (endogenous in yeast …, UniProt P07213 1-617))
T1 sequence (looked up): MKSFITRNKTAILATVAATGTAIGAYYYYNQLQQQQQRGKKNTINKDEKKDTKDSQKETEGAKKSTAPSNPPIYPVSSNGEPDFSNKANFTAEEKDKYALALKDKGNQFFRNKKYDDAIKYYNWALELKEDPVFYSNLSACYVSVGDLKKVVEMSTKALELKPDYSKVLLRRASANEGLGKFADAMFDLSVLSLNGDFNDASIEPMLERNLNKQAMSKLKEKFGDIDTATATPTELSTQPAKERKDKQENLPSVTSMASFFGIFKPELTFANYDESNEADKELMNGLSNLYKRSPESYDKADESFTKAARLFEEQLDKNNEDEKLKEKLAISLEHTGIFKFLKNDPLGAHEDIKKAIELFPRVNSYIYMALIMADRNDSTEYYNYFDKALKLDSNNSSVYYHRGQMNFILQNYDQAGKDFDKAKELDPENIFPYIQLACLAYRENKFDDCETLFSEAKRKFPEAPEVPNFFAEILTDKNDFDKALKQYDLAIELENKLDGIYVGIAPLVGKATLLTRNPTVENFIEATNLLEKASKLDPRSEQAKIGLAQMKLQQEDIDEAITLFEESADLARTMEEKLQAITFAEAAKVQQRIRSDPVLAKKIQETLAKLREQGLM
Test: co-IP

B1: Mas37p (natural protein)
chain: MVKGSVHLWGKDGKASLISVDSIALVWFIKLCTSEEAKSMVAGLQIVFSNNTDLSSDGKLPVLILDNGTKVSGYVNIVQFLHKNICTSKYEKGTDYEEDLAIVRKKDRLLEYSLLNYVDVEISRLTDYQLFLNTKNYNEYTKKLFSKLLYFPMWYNTPLQLRSQARENCEEIIGSLTLEDDEEFVESKAMESASQLAQSKTFKIAHKNKIKGKQELQQVKYNLQFDNRLQSCVSNWLAARKKLDDSVILSSDLLFLANLYVQLGLPDGNRIRSKLEQTFGSELLNSMSNKIDDFVHRPSNNLEQRDPQFREQGNVVMSLYNLACKYI
Q: B1 was tested. Which “stoichiometry N” value did it give?
A: The value was 1 mol Mas37p per mol Mas70p.
